For two substances, Km, kcat and kcat/Km results are on record in article PMC6030132, “Tailoring recombinant lipases: keeping the His-tag favors esterification reactions, removing it favors hydrolysis reactions” (Scientific Reports, 2018).

Series [1] concerns T1, CCCCCCCCCC(=O)Oc1ccc([N+](=O)[O-])cc1.
T1 construct: full-length lipC12 product (293 residues) from pTEV5lipC12, E. coli BL21(DE3); His-tag cut off with TEV protease, GASH left at N-terminus
The series is described as follows: purified protein. The format is biochemical, uncultured bacterium. The following applies: apparent constant, free enzyme, 50 mM Tris-HCl pH 7.5, 1 mM CaCl2, 0.6% Triton X-100, 4% isopropanol, 1% acetonitrile, 25 °C, 95% confidence interval in parentheses.

The test system of series [2] is T2, CCCCCCCCCC(=O)Oc1ccc([N+](=O)[O-])cc1.
T2 construct: full-length lipC12 product (293 residues) from pTEV5lipC12, E. coli BL21(DE3)
The series is described as follows: purified protein. The format is biochemical, uncultured bacterium. The conditions noted are these: apparent constant, free enzyme, 50 mM Tris-HCl pH 7.5, 1 mM CaCl2, 0.6% Triton X-100, 4% isopropanol, 1% acetonitrile, 25 °C, 95% confidence interval in parentheses.

As usually defined, the kcat is the maximal rate divided by the concentration of active sites. What is called kcat/Km is the turnover number divided by the Michaelis constant.

In the case of cLipC12 (uncultured bacterium), in series [1], the Km was 1.33 (1.17–1.51) mM, the kcat was determined as 2.52 s⁻¹ and the kcat/Km stood at 1900 M⁻¹ s⁻¹.
As to HisTEVS-LipC12 (uncultured bacterium), in series [2], the Km is 1.77 (1.56–2.02) mM, the kcat worked out at 2.53 s⁻¹ and the kcat/Km is 1430 M⁻¹ s⁻¹.
